Assay results: patent publication US6818657B1, “Bioprecursors of a retinoic derivative and pharmaceutical and/or cosmetic compositions” (Pierre Fabre Dermo-Cosmetique, priority 1999, dated 2004)

Substrate: CC1=C(/C=C/C(C)=C/C=C/C(C)=C/C(=O)Oc2ccc(O[C@@H]3OC(CO)[C@@H](O)C(O)C3O)cc2)C(C)(C)CCC1
Experiment: Michaelis constants (Km) and Vm of recombinant β-glucocerebrosidase for pseudosubstrates
Type: biochemical
Settings: other: phthalate buffer pH 5.6 (0.025 M), taurocholate 5 mM, purified β-glucocerebrosidase, 30 minutes incubation, HPLC assay
Experimental: After confirming that β-glucocerebrosidase is expressed in the keratinocytes, we produced a recombinant enzyme in the baculovirus system. A histidine tail was added to the COOH end of the protein to allow it to be purified by affinity column chromatography.
Thus, we were able to determine the Michaelis constants (Km) and the Vm values of the recombinant β-glucocerebrosidase in particular for the retinoic acid-arbutin glucoconjugate. The kinetics measurements are carried out in a phthalate buffer at pH 5.6 (0.025 M) containing taurocholate (5 mM), purified β-glucocerebrosidase and the test conjugate at various concentrations. The incubation lasts 30 minutes and the amount of hydroquinone-retinoic acid conjugate released is assayed by HPLC. The table below gives the results obtained. […] As regards their rates of hydrolysis, these are lower and thus allow effects to be obtained over time.

B1: recombinant β-glucocerebrosidase (Homo sapiens) (protein)
chain: ARPCIPKSFGYSSVVCVCNATYCDSFDPPTFPALGTFSRYESTRSGRRMELSMGPIQANHTGTGLLLTLQPEQKFQKVKGFGGAMTDAAALNILALSPPAQNLLLKSYFSEEGIGYNIIRVPMASCDFSIRTYTYADTPDDFQLHNFSLPEEDTKLKIPLIHRALQLAQRPVSLLASPWTSPTWLKTNGAVNGKGSLKGQPGDIYHQTWARYFVKFLDAYAEHKLQFWAVTAENEPSAGLLSGYPFQCLGFTPEHQRDFIARDLGPTLANSTHHNVRLLMLDDQRLLLPHWAKVVLTDPEAAKYVHGIAVHWYLDFLAPAKATLGETHRLFPNTMLFASEACVGSKFWEQSVRLGSWDRGMQYSHSIITNLLYHVVGWTDWNLALNPEGGPNWVRNFVDSPIIVDITKDTFYKQPMFYHLGHFSKFIPEGSQRVGLVASQKNDLDAVALMHPDGSAVVVVLNRSSKDVPLTIKDPAVGFLETISPGYSIHTYLWRRQ
notes: histidine tail (His tag) (C); made in house
Which Km does the source give for B1 here?
Its Km is 5 ± 1.2 µM.

What about the Vmax of the same protein?
Its Vmax is 235 ± 19 nmol/h/mg.
